These results are taken from PMC2515629 (PLoS ONE, 2008).

Broadly, the Kd is a measure of binding affinity in units of concentration. By koff is commonly meant the first-order rate constant of dissociation. The term kon denotes the rate constant with which the complex forms.

For the experiment, the target named is T1, recombinant BoNT/A light chain (recombinant N-terminal domain of BoNT/A, amino acids 1-425) (Clostridium botulinum type A, …, UniProt P0DPI0).
T1 construct: source: E. coli, purified following published protocols
Kind of experiment: kinetic exclusion assay (KinExA). As to conditions: both partners purified. A general note: A kinetic exclusion assay measures how much of one partner remains free in solution.

T1 sequence (P0DPI0 1-425): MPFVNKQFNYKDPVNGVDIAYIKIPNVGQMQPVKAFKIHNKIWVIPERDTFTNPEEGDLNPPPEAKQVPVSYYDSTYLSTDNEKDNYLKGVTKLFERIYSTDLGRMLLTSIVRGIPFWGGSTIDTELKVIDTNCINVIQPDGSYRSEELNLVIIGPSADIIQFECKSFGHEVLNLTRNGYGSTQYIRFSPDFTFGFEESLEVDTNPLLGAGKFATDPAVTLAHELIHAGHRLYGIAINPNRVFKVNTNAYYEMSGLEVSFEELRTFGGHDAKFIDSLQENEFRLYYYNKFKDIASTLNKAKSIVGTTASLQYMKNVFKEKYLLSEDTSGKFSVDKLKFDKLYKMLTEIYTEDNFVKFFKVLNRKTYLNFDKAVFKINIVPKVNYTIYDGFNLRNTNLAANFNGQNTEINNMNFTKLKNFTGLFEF

B1: 4LCA antibody (antibody, V domains shown)
VH: QLQLQESGPGLVKPSETLSLTCTVSGGSISSSSYFWGWIRQPPGKGLEWIGYIHYSGNTYYNPSLTSRVTMSVDKSKNQFSLKLTSVTAADTALYSCATFLGRGAPFDPWGQGTLVTVSS
VL: QPPSVSVAPGQTARITCGGTNIGSKSVHWYQRQPGQAPVLVIYYDTDRPSGIPERFSGSNSENTATLTISRVEAGDEADYYCQVWGSGSDHPGVFGGGTKLTVL
notes: also called 4LCA mAb; 4LCA human monoclonal antibody
For the molecule B1, the Kd came to 0.031 nM, the koff was 7.1e-05 s⁻¹ and the kon was 2.3e+06 M⁻¹ s⁻¹.
